± gives the standard error. Fewer inactive variants are shown than the library holds.
B1: glmS ribozyme (parent)
chain: AUAAAAGCGCCAGAACUACAGAAAUGUAGUUGACGAGGAGGAGGUUUAUCGAAUUUUCGGCGGAUGCCUCCAAA

Variants of: B1
Test: self-cleavage kobs at 2500 uM GlcN6P; higher = faster cleavage; RNA array
Settings: with glucosamine-6-phosphate
Method in brief: (§1)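 A hybridised Cy3 probe tracked barcoded ribozyme variants, transcribed in situ by E. coli RNA polymerase on sequenced MiSeq chips, at 37 °C. The variants received 40 μM to 10 mM glucosamine-6-phosphate in HEPES/KCl/Mg(OAc)2 buffer. kobs came from decay fits and kcat and KM from weighted Michaelis–Menten fits.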

Variant | self-cleavage kobs at 2500 uM GlcN6P [s⁻¹]
G7C C11U U54A | < 1e-05
G13A U45G A64G | 6.3e-05 ± 1.9e-05
C34U A52U A53G A64U C70U | < 1e-05
C10U G32U G41C U55G | < 1e-05
A14U A48G C58A A64U C70G | 5.92e-05 ± 2.4e-05
U46A A48U | 6.88e-05 ± 2.5e-05
G29U A42C C61A | < 1e-05
G13U A42C C71G | < 1e-05
G13C G62C A64C | < 1e-05
U47A U57C | 0.000104 ± 2.6e-05
G35C A42U U56C C68G | < 1e-05
A33U G37C G38C G43A G51A | < 1e-05
G7C C50U C67A | < 1e-05
A36U A42G G60U C70A | < 1e-05
G32U U45C | 1.98e-05 ± 7.1e-06
G32U G41U G44A C70U | < 1e-05
A14C G29U A39C U46G U47A | < 1e-05
C10U G43C C61U C70U | < 1e-05
C8A U57C C70G C71U | < 1e-05
C10U G60C G63U | < 1e-05
A36G G40C C61U G63C A64C | < 1e-05
G7U A12C A36C A39U U47C | < 1e-05
G37A U56C | 0.000299 ± 7.3e-05
G29A U47A A52U | 4.18e-05 ± 1.7e-05

Variant | self-cleavage kobs at 2500 uM GlcN6P [s⁻¹]
G32A G60A U65C | < 1e-05
G35C G40C C70U | < 1e-05
A6C U30C A39U U47A C50U A53C | < 1e-05
U30G U55C U65A C71U | 8.23e-05 ± 1.7e-05
A12G U30C C58A | 0.000105 ± 3.1e-05
A14G G63C A64U | < 1e-05
G13U G43U G63U | < 1e-05
A12G A14U A64G | 0.000293 ± 7.2e-05
G43A G66C C71A | < 1e-05
G43C U46G C58A | < 1e-05
C16U G41C C70A | 0.000347 ± 0.00017
G37U A48C A53G | < 1e-05
C10G G37A U56G G62U | < 1e-05
A6G C16U G40C U46A G66U | < 1e-05
G9C G60A C67U | < 1e-05
U30C U31A A36G C50A U57G | < 1e-05
G9A G62U U69G | < 1e-05
A6C C8U U45G U65C C67A | < 1e-05
G59A U69C C70U | < 1e-05
A15G G38U G60A | < 1e-05
A52U A53G A64G | 5.47e-05 ± 1.7e-05
G32A U49A U65G | < 1e-05
U45C G66C C71A | 6.04e-05 ± 2.8e-05
C10U C11A A12G G41C | < 1e-05

Variant | self-cleavage kobs at 2500 uM GlcN6P [s⁻¹]
A14G G37C A39G | 6.41e-05 ± 1.9e-05
A36G G40U U45C C67U | < 1e-05
G7C C8G G40C | < 1e-05
A36U G38C U47G | < 1e-05
A14C U46C C50A U57C C61U U65C | < 1e-05
U31G U55A C67A | 0.00299 ± 0.00085
G13U U30C G32C | 6.71e-05 ± 2.9e-05
G40U U57A C61G | < 1e-05
G37A U45A A52U G60A | < 1e-05
G29C U46G U55G | 3.45e-05 ± 1.5e-05
C34U G44U U49C G59A C61A | < 1e-05
A15U G29U C61U | < 1e-05
C34A A36G G38U U69G | 4.35e-05 ± 2e-05
U45A A48G C67G | 8.99e-05 ± 3.1e-05
A14G G51C G62C U65A C68G C70A | < 1e-05
G38A C58U C71U | < 1e-05
A39U U46G U56G | 0.000873 ± 0.00027
A6G A15C G63A | < 1e-05
A6U C11A G29A C50U | < 1e-05
C8U G9U U56A C70G | < 1e-05
G13A G32U A39U | 4.61e-05 ± 8.8e-06
G37A G41A C61U | < 1e-05
C10U A36U G41U A42G U54G G59C | < 1e-05
C10U A53G C61A C67G | 8.38e-05 ± 4.1e-05

Variant | self-cleavage kobs at 2500 uM GlcN6P [s⁻¹]
C34U C50G C67A | 8.66e-05 ± 2.1e-05
G13U G37U U55G G66U | < 1e-05
G35C G38U G59C U69G | < 1e-05
C11G G38U A42U G43A | < 1e-05
G43U G44U G60A A64G C67A C71G | < 1e-05
G37C U45G U46G G60C A64C | < 1e-05
U30C G35U G51A A53U U56C | < 1e-05
A14U G37C A42C | < 1e-05
G29C A48C U49C | < 1e-05
A6G C16U C58U U65G | < 1e-05
A6C C11U C68U | < 1e-05
G51C G66C C71A | < 1e-05
U30A U31A U57A C71U | 0.000133 ± 3.1e-05
G29C U31C C70A | 7.34e-05 ± 3.4e-05
G13U U54A U65A | 5.74e-05 ± 1.5e-05
A42U C50G G51C U69G C71G | < 1e-05
A39U A52C C67G U69G | < 1e-05
A48U G60C C61A | < 1e-05
G40A C61G G66C C67A | < 1e-05
A15C U45G U54A | 0.000589 ± 0.00012
G35C C50A C67G | < 1e-05
G13U G29C G40C C50U A52C | < 1e-05
G40C C70G C71U | 7.87e-05 ± 1.6e-05
C11U U31C G32A A64U | < 1e-05

Variant | self-cleavage kobs at 2500 uM GlcN6P [s⁻¹]
G38C A39G G59A | < 1e-05
C10U G43A C50U G51C | < 1e-05
U47C A52G G60C U65G C67A | < 1e-05
C8A G29U G32U | < 1e-05
A6C A33U A52G U57C C70U | < 1e-05
A39C U56C U65G | 8.8e-05 ± 1.3e-05
A14U A39G G41U | 0.000106 ± 2.6e-05
C34A G41A C50G | < 1e-05
G9C A12C A42C | < 1e-05
G29C G59A G66C | < 1e-05
A15C G41U U57C A64U | < 1e-05
A12G G63A C67A | < 1e-05
A6G A33U C58A | < 1e-05
G37U A39U G43U C67G | < 1e-05
C8A G32C G40U U55A | < 1e-05
A36G A39U G62U | < 1e-05
C8G C11A A33C | < 1e-05
C10U C67G C68U | 0.000126 ± 4.8e-05
A6G A39G U54G | 0.000164 ± 4.9e-05
A15C U30C C68G | 0.000192 ± 6.4e-05
G29A A33G G38A G60U | < 1e-05
G26U G29U U55A C70A | 8.18e-05 ± 2.7e-05
A6U C8U G32A A33G G44A U45G | < 1e-05
G9C C50G U55A U57G C70U | 0.000283 ± 0.0001

Variant | self-cleavage kobs at 2500 uM GlcN6P [s⁻¹]
C8U A36C U45G A53G G60C C67A | < 1e-05
U30A G51A C61U | < 1e-05
G9U A36G U49A G62U C67U C70G | < 1e-05
A33C C50G | 0.000218 ± 9.9e-05
A6U G44U U46A A52U U56G C58U C70U | < 1e-05
C10G A12C G44A C68U | < 1e-05
G7C A42G U69G | < 1e-05
G38A C58A C70G | 6.46e-05 ± 1.7e-05
G40U C50A U56A C67G C71U | < 1e-05
G13C A36C C71U | < 1e-05
A15C U31G A53C | 0.000196 ± 3.5e-05
C34A A39U C50G C67G | 0.000353 ± 6.7e-05
A12C G41A G63A | < 1e-05
C10G U46A U56G | < 1e-05
G32A G60C C70A | < 1e-05
A12G U56C C67U | < 1e-05
G13U A15U U30G G59C | < 1e-05
A39G G40U U56A | 0.000452 ± 0.00011
C34A G35U G59U | < 1e-05
G13C U31A A64G | 9.93e-05 ± 3e-05
G40C U54G G66A | 0.00142 ± 0.00027
A42C C58A G60U | < 1e-05
C58U A64U C67G | < 1e-05
G7U C10G A12C A42C G62U | < 1e-05

Variant | self-cleavage kobs at 2500 uM GlcN6P [s⁻¹]
A14C G43A C61U | < 1e-05
U30A G43U | < 1e-05
A15G G32C C70G | < 1e-05
A15U U55G A64U C71U | < 1e-05
C8U C34G U69G | 8.61e-05 ± 2.2e-05
A14G G38A G40A | < 1e-05
A6G G9A G38A A48G A53G C71G | < 1e-05
U55G U65C | 0.000396 ± 8.6e-05
U49C G63U G66C | < 1e-05
U31G G35C G41A A53U G63A | < 1e-05
A12G G32U G40U | 0.000317 ± 0.00011
A15U C16U A33U A42U U57G G62C A64U | < 1e-05
G9A A14G U56G | 5.76e-05 ± 2.3e-05
A14C G21U | 0.00132 ± 0.00031
A14G A53C U57G | 0.000168 ± 5.2e-05
U31G G63C | < 1e-05
C34G G35U G43U | < 1e-05
G32C G35A A42U | < 1e-05
A15C G38A C67U | < 1e-05

Variants of: B1
Test: self-cleavage kobs at 10000 uM GlcN6P; higher = faster cleavage; RNA array
Settings: with glucosamine-6-phosphate
Method in brief: as §1

Variant | self-cleavage kobs at 10000 uM GlcN6P [s⁻¹]
G29U A42C C61A | < 1e-05
U47A U57C | 0.000159 ± 2.5e-05
G32U U45C | 4.42e-05 ± 5.9e-06
G37A U56C | 0.000401 ± 5.4e-05
U30C G35U G51A A53U U56C | < 1e-05
C8G C11A A33C | < 1e-05
G9C C50G U55A U57G C70U | 0.000426 ± 0.00018
U30A G51A C61U | < 1e-05
A39G G40U U56A | 0.00056 ± 0.00013
U30A G43U | < 1e-05
U55G U65C | 0.000628 ± 0.00013

From the supplement of paper PMC7125110
